# Laboratory results published in publication PMC6765115.
# Read-outs that look alike come from different tables or passages of the source.
# T1: C.Csp231I C-ARQ (Cmut) (Citrobacter sp. (Csp231I R-M system), UniProt Q32WH4 1-98, A33G;R34E;Q37A)
# T1 sequence: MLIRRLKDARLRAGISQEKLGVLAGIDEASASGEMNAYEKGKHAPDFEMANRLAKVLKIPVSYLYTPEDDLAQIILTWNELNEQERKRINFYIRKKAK
# T2: C.Csp231I (C protein, WT) (Citrobacter sp. (Csp231I R-M system), UniProt Q32WH4 1-98)
# T2 sequence: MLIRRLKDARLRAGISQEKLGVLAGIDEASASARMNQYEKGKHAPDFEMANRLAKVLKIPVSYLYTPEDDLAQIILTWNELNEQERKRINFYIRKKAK
# B1: racR (176 bp) (dsDNA)
# DNA 1: GCGACGCCTAACGCAATTGTCAATAGGCTGTGCCTAATGCAGTAAGGGTAGGGATTGCCTAATGTAATGCGCATAGGAGAATATTAAGCAATGCTTAGTGGTAAAGACTTAGGCCGAGCGATAGAGCAGGCCATTAACAAAAAAATCGCATCGGGATCCGTCAAATCAAAGGCGG
# DNA 2: CCGCCTTTGATTTGACGGATCCCGATGCGATTTTTTTGTTAATGGCCTGCTCTATCGCTCGGCCTAAGTCTTTACCACTAAGCATTGCTTAATATTCTCCTATGCGCATTACATTAGGCAATCCCTACCCTTACTGCATTAGGCACAGCCTATTGACAATTGCGTTAGGCGTCGC
# B2: racRmut (176 bp) (dsDNA)
# DNA 1: GCGACGCCTAACGCAATTGTCAATAGGCTGTGCCTAATGCAGTAAGGGTAGGGATTGCCTAATGTAATGCGCATAGGAGAATATTAAGCAATGCGCATTGGTAAAGACTTAGGCCGAGCGATAGAGCAGGCCATTAACAAAAAAATCGCATCGGGATCCGTCAAATCAAAGGCGG
# DNA 2: CCGCCTTTGATTTGACGGATCCCGATGCGATTTTTTTGTTAATGGCCTGCTCTATCGCTCGGCCTAAGTCTTTACCAATGCGCATTGCTTAATATTCTCCTATGCGCATTACATTAGGCAATCCCTACCCTTACTGCATTAGGCACAGCCTATTGACAATTGCGTTAGGCGTCGC
# Assays:
# Test in all cases: EMSA
# [1] = target: T1, C.Csp231I C-ARQ (Cmut)
# [2] = target: T2, C.Csp231I (C protein, WT)
# [3] = target: T2, C.Csp231I (C protein, WT); remark: listed apart in the source
binder,measurement,setting,value
B1,binding result,[1],no binding
same,binding result,[2],binds
B2,binding result,[3],no binding
same,binding result,[1],no binding
